Measurements published in the supplement of paper PMC10567573.

B1: KCNAB2 (parent)
chain: IPPYSRASLKGYQWLKDKILSEEG
B2: SPSB4 (parent)
chain: LDMDEGTLSFIVDGQYLGVAFRGL

Variants of: B1
Experiment: protein stability index of a GFP-peptide fusion (GPS, HEK-293T) (PSI 1-6); higher = more stable
Conditions: c terminus: a fixed tail appended
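Further: lentivirally expressed fusions sorted by FACS into six bins by GFP to DsRed ratio, PSI derived from sequencing read proportions per bin multiplied by bin number.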

**Q.** With IPPVSRASLKGYQWLKDKILSEEG as the variant, how does the protein stability index read?
**A.** 2.49

**Q.** For IPPASRASLKGYQWLKDKILSEEG, which protein stability index is on record?
**A.** 2.77

**Q.** For IPPTSRASLKGYQWLKDKILSEEG, which protein stability index is on record?
**A.** 2.33

**Q.** With IPPMSRASLKGYQWLKDKILSEEG as the variant, how does the protein stability index read?
**A.** 1.83

**Q.** With IPPNSRASLKGYQWLKDKILSEEG as the variant, how does the protein stability index read?
**A.** 3.1

**Q.** For IPPFSRASLKGYQWLKDKILSEEG, which protein stability index is on record?
**A.** 2.14

**Q.** For IPAYSRASLKGYQWLKDKILSEEG, which protein stability index is on record?
**A.** 2.27

**Q.** Which protein stability index does the source give for IPQYSRASLKGYQWLKDKILSEEG here?
**A.** 2.54

**Q.** With IPVYSRASLKGYQWLKDKILSEEG as the variant, how does the protein stability index read?
**A.** 2.3

**Q.** For IPLYSRASLKGYQWLKDKILSEEG, which protein stability index is on record?
**A.** 3.1

**Q.** Which protein stability index does the source give for IPCYSRASLKGYQWLKDKILSEEG here?
**A.** 1.51

**Q.** With IPHYSRASLKGYQWLKDKILSEEG as the variant, how does the protein stability index read?
**A.** 1.74

**Q.** For IPGYSRASLKGYQWLKDKILSEEG, which protein stability index is on record?
**A.** 1.78

**Q.** Which protein stability index does the source give for IPIYSRASLKGYQWLKDKILSEEG here?
**A.** 2.28

**Q.** With IPSYSRASLKGYQWLKDKILSEEG as the variant, how does the protein stability index read?
**A.** 2.62

**Q.** Which protein stability index does the source give for IPEYSRASLKGYQWLKDKILSEEG here?
**A.** 2.5

**Q.** For IPNYSRASLKGYQWLKDKILSEEG, which protein stability index is on record?
**A.** 2.48

**Q.** Which protein stability index does the source give for IPKYSRASLKGYQWLKDKILSEEG here?
**A.** 2.75

**Q.** With IPYYSRASLKGYQWLKDKILSEEG as the variant, how does the protein stability index read?
**A.** 2.53

**Q.** With IPRYSRASLKGYQWLKDKILSEEG as the variant, how does the protein stability index read?
**A.** 3.2

**Q.** For IPTYSRASLKGYQWLKDKILSEEG, which protein stability index is on record?
**A.** 2.06

**Q.** Which protein stability index does the source give for IPDYSRASLKGYQWLKDKILSEEG here?
**A.** 3.1

**Q.** For IPFYSRASLKGYQWLKDKILSEEG, which protein stability index is on record?
**A.** 2.85

**Q.** With IPPYSMASLKGYQWLKDKILSEEG as the variant, how does the protein stability index read?
**A.** 1.95

**Q.** Which protein stability index does the source give for IPPYSQASLKGYQWLKDKILSEEG here?
**A.** 3.23

**Q.** With IPPYSGASLKGYQWLKDKILSEEG as the variant, how does the protein stability index read?
**A.** 2.53

**Q.** Which protein stability index does the source give for IPPYSAASLKGYQWLKDKILSEEG here?
**A.** 2.82

**Q.** For IPPYSFASLKGYQWLKDKILSEEG, which protein stability index is on record?
**A.** 2.16

**Q.** For IPPYSVASLKGYQWLKDKILSEEG, which protein stability index is on record?
**A.** 1.7

**Q.** Which protein stability index does the source give for IPPYSCASLKGYQWLKDKILSEEG here?
**A.** 1.94

**Q.** For IPPYSLASLKGYQWLKDKILSEEG, which protein stability index is on record?
**A.** 2.45

**Q.** With IPPYSEASLKGYQWLKDKILSEEG as the variant, how does the protein stability index read?
**A.** 3.93

**Q.** Which protein stability index does the source give for IPPYSSASLKGYQWLKDKILSEEG here?
**A.** 3.06

**Q.** With IPPYSKASLKGYQWLKDKILSEEG as the variant, how does the protein stability index read?
**A.** 2.56

**Q.** With IPPYSPASLKGYQWLKDKILSEEG as the variant, how does the protein stability index read?
**A.** 2.67

**Q.** Which protein stability index does the source give for IPPYSYASLKGYQWLKDKILSEEG here?
**A.** 1.6

**Q.** With IPPYSNASLKGYQWLKDKILSEEG as the variant, how does the protein stability index read?
**A.** 2.74

**Q.** With IPPYSHASLKGYQWLKDKILSEEG as the variant, how does the protein stability index read?
**A.** 2.2

**Q.** Which protein stability index does the source give for IPPYSIASLKGYQWLKDKILSEEG here?
**A.** 2.06

**Q.** For IPPYSTASLKGYQWLKDKILSEEG, which protein stability index is on record?
**A.** 2.59

**Q.** Which protein stability index does the source give for IPPYPRASLKGYQWLKDKILSEEG here?
**A.** 3.12

**Q.** Which protein stability index does the source give for IPPYRRASLKGYQWLKDKILSEEG here?
**A.** 1.82

**Q.** For IPPYHRASLKGYQWLKDKILSEEG, which protein stability index is on record?
**A.** 2.63

**Q.** Which protein stability index does the source give for IPPYARASLKGYQWLKDKILSEEG here?
**A.** 2.15

**Q.** Which protein stability index does the source give for IPPYYRASLKGYQWLKDKILSEEG here?
**A.** 2.79

**Q.** With IPPYDRASLKGYQWLKDKILSEEG as the variant, how does the protein stability index read?
**A.** 2.8

**Q.** For IPPYQRASLKGYQWLKDKILSEEG, which protein stability index is on record?
**A.** 2.45

**Q.** For IPPYTRASLKGYQWLKDKILSEEG, which protein stability index is on record?
**A.** 2.42

**Q.** Which protein stability index does the source give for IPPYFRASLKGYQWLKDKILSEEG here?
**A.** 3.12

**Q.** For IPPYGRASLKGYQWLKDKILSEEG, which protein stability index is on record?
**A.** 3.42

**Q.** For IPPYNRASLKGYQWLKDKILSEEG, which protein stability index is on record?
**A.** 2.21

**Q.** With IPPYERASLKGYQWLKDKILSEEG as the variant, how does the protein stability index read?
**A.** 3.09

**Q.** Which protein stability index does the source give for IPPYKRASLKGYQWLKDKILSEEG here?
**A.** 2

**Q.** With TPPYSRASLKGYQWLKDKILSEEG as the variant, how does the protein stability index read?
**A.** 2.99

**Q.** For EPPYSRASLKGYQWLKDKILSEEG, which protein stability index is on record?
**A.** 3.38

**Q.** With SPPYSRASLKGYQWLKDKILSEEG as the variant, how does the protein stability index read?
**A.** 3.37

**Q.** For GPPYSRASLKGYQWLKDKILSEEG, which protein stability index is on record?
**A.** 2.19

**Q.** With KPPYSRASLKGYQWLKDKILSEEG as the variant, how does the protein stability index read?
**A.** 2.33

**Q.** For PPPYSRASLKGYQWLKDKILSEEG, which protein stability index is on record?
**A.** 2.82

**Q.** For DPPYSRASLKGYQWLKDKILSEEG, which protein stability index is on record?
**A.** 3.51

**Q.** For VPPYSRASLKGYQWLKDKILSEEG, which protein stability index is on record?
**A.** 2.77

**Q.** Which protein stability index does the source give for FPPYSRASLKGYQWLKDKILSEEG here?
**A.** 2.15

**Q.** For LPPYSRASLKGYQWLKDKILSEEG, which protein stability index is on record?
**A.** 2.08

**Q.** For CPPYSRASLKGYQWLKDKILSEEG, which protein stability index is on record?
**A.** 2.43

**Q.** With NPPYSRASLKGYQWLKDKILSEEG as the variant, how does the protein stability index read?
**A.** 2.5

**Q.** With APPYSRASLKGYQWLKDKILSEEG as the variant, how does the protein stability index read?
**A.** 2.6

**Q.** With HPPYSRASLKGYQWLKDKILSEEG as the variant, how does the protein stability index read?
**A.** 2.59

**Q.** Which protein stability index does the source give for MPPYSRASLKGYQWLKDKILSEEG here?
**A.** 2.19

**Q.** For IPPYSRASLKEYQWLKDKILSEEG, which protein stability index is on record?
**A.** 3.51

**Q.** With IPPYSRASLKNYQWLKDKILSEEG as the variant, how does the protein stability index read?
**A.** 2.68

**Q.** With IPPYSRASLKYYQWLKDKILSEEG as the variant, how does the protein stability index read?
**A.** 2.91

**Q.** Which protein stability index does the source give for IPPYSRASLKIYQWLKDKILSEEG here?
**A.** 2.37

**Q.** With IPPYSRASLKFYQWLKDKILSEEG as the variant, how does the protein stability index read?
**A.** 3.33

**Q.** With IPPYSRASLKHYQWLKDKILSEEG as the variant, how does the protein stability index read?
**A.** 2.19

**Q.** Which protein stability index does the source give for IPPYSRASLKWYQWLKDKILSEEG here?
**A.** 3.38

**Q.** With IPPYSRASLKPYQWLKDKILSEEG as the variant, how does the protein stability index read?
**A.** 2.46

**Q.** With IPPYSRASLKTYQWLKDKILSEEG as the variant, how does the protein stability index read?
**A.** 2.1

**Q.** Which protein stability index does the source give for IPPYSRASLKMYQWLKDKILSEEG here?
**A.** 2.08

**Q.** Which protein stability index does the source give for IPPYSRASLKDYQWLKDKILSEEG here?
**A.** 2.89

**Q.** Which protein stability index does the source give for IPPYSRASLKCYQWLKDKILSEEG here?
**A.** 1.92

**Q.** Which protein stability index does the source give for IPPYSRASLKRYQWLKDKILSEEG here?
**A.** 2.66

**Q.** With IPPYSRASLKKYQWLKDKILSEEG as the variant, how does the protein stability index read?
**A.** 1.78

**Q.** With IPPYSRASLKAYQWLKDKILSEEG as the variant, how does the protein stability index read?
**A.** 1.8

**Q.** For IPPYSRASLKSYQWLKDKILSEEG, which protein stability index is on record?
**A.** 1.64

**Q.** For IPPYSRASLKQYQWLKDKILSEEG, which protein stability index is on record?
**A.** 2.96

Variants of: B2
Experiment: as above
Conditions: c terminus: a fixed tail appended

**Q.** For LDMDEGTLSFIVDGQYLGVAFRGR, which protein stability index is on record?
**A.** 2.11

**Q.** With LDMDEGTLSFIVDGQYLGVAFRGW as the variant, how does the protein stability index read?
**A.** 2.54

**Q.** For LDMDEGTLSFIVDGQYLGVAFRGS, which protein stability index is on record?
**A.** 1.88

**Q.** Which protein stability index does the source give for LDMDEGTLSFIVDGQYLGVAFRGV here?
**A.** 3.18

**Q.** For LDMDEGTLSFIVDGQYLGVAFRGP, which protein stability index is on record?
**A.** 2.78

**Q.** For LDMDEGTLSFIVDGQYLGVAFRGN, which protein stability index is on record?
**A.** 2.19

**Q.** Which protein stability index does the source give for LDMDEGTLSFIVDGQYLGVAFRGT here?
**A.** 2.67

**Q.** Which protein stability index does the source give for LDMDEGTLSFIVDGQYLGVAFRGQ here?
**A.** 2.6

**Q.** Which protein stability index does the source give for LDMDEGTLSFIVDGQYLGVAFRGY here?
**A.** 2.76
